Tests used:
[1] = biological target: Nonlabens marinus rhodopsin 3 (NM-R3), chloride ion-pumping rhodopsin clade (Nonlabens marinus S1-08T); assay: cryo-EM structure
[2] = biological target: Nonlabens marinus rhodopsin 1 (NM-R1), proteorhodopsin clade (Nonlabens marinus S1-08T); assay: cryo-EM structure

stoichiometry N [1] | stoichiometry N [2] | Substance
5 | – | Nonlabens marinus rhodopsin 3 (NM-R3), chloride ion-pumping rhodopsin clade (natural protein)
– | 5 | Nonlabens marinus rhodopsin 1 (NM-R1), proteorhodopsin clade (natural protein)

Reference: article doi:10.1101/2024.11.08.622755
